Test results taken from patent publication US20120040900A1 (BRIGHAM AND WOMEN S HOSPITAL, published 2012).

B1: RR1234L (peptide)
coil peptide: KGGGLEIRAAFLRRRNTALRTRVAELRQRVQRLRNIVSQYETRYGPL
notes: also called RR1234L (pI=12.4); basic coil peptide
B2: EE1234L (peptide)
coil peptide: LEIEAAFLEQENTALETEVAELEQEVQRLENIVSQYETRYGPLGGGK
notes: also called EE1234L (pI=3.7); acidic coil peptide

Assays:
[1] = homodimer, circular dichroism thermal denaturation; unit inferred
[2] = target: the molecule itself; test: homodimer, circular dichroism thermal denaturation; unit not given
[3] = target: B1; test: heterodimer, circular dichroism thermal denaturation; unit inferred

Protein | Tm [1] | ΔG [2] | ΔH [2] | Tm [3]
B1 | 44 °C | -9.4 | -66 | –
B2 | 28 °C | -6.2 | -45 | > 90 °C
